Patent publication US20070258988A1

Assays:
rMOR-1 (rat) [1] = biological target: rMOR-1 (rat) (UniProt P33535); experiment: competition against [3H]DAMGO (~1 nM), membranes of stable CHO transfectants
hMOR-1B2 (human) [2] = biological target: hMOR-1B2 (human) (UniProt P35372); experiment: as above
[3] = biological target: hMOR-1 (exons 1-3) (human) (UniProt P35372); experiment: as above
hMOR-1 (human) [4] = biological target: hMOR-1 (human) (UniProt P35372); experiment: as above
hMOR-1A (human) [5] = experiment: as above
hMOR-1B1 (human) [6] = biological target: hMOR-1B1 (human) (UniProt P35372); experiment: as above
hMOR-1B3 (human) [7] = biological target: hMOR-1B3 (human) (UniProt P35372); experiment: as above
hMOR-1B4 (human) [8] = biological target: hMOR-1B4 (human) (UniProt P35372); experiment: as above
hMOR-1B5 (human) [9] = biological target: hMOR-1B5 (human) (UniProt P35372); experiment: as above
hMOR-1Y (human) [10] = biological target: hMOR-1Y (human) (UniProt P35372); experiment: as above
rMOR-1 (no Exon 4) (rat) [11] = biological target: rMOR-1 (no Exon 4) (rat) (UniProt P33535); experiment: cell-based or functional assay
rMOR-1 (rat) [12] = biological target: rMOR-1 (rat) (UniProt P33535); experiment: cell-based or functional assay
rMOR-1A (rat) [13] = experiment: cell-based or functional assay
rMOR-1C1 (rat) [14] = experiment: cell-based or functional assay
rMOR-1D (rat) [15] = experiment: cell-based or functional assay
rMOR-1 (no Exon 4) (rat) [16] = biological target: rMOR-1 (no Exon 4) (rat) (UniProt P33535); experiment: competition against [3H]DAMGO (~1 nM), membranes of stable CHO transfectants
rMOR-1A (rat) [17] = experiment: as above
rMOR-1C1 (rat) [18] = experiment: as above
rMOR-1D (rat) [19] = experiment: as above
[20] = biological target: hMOR-1 (exons 1-3) (human) (UniProt P35372); experiment: cell-based or functional assay
hMOR-1 (human) [21] = biological target: hMOR-1 (human) (UniProt P35372); experiment: cell-based or functional assay
hMOR-1A (human) [22] = experiment: cell-based or functional assay
hMOR-1B1 (human) [23] = biological target: hMOR-1B1 (human) (UniProt P35372); experiment: cell-based or functional assay
hMOR-1B2 (human) [24] = biological target: hMOR-1B2 (human) (UniProt P35372); experiment: cell-based or functional assay
hMOR-1B3 (human) [25] = biological target: hMOR-1B3 (human) (UniProt P35372); experiment: cell-based or functional assay
hMOR-1B4 (human) [26] = biological target: hMOR-1B4 (human) (UniProt P35372); experiment: cell-based or functional assay
hMOR-1B5 (human) [27] = biological target: hMOR-1B5 (human) (UniProt P35372); experiment: cell-based or functional assay
hMOR-1Y (human) [28] = biological target: hMOR-1Y (human) (UniProt P35372); experiment: cell-based or functional assay
rMOR-1 (no Exon 4) (rat) [29] = biological target: rMOR-1 (no Exon 4) (rat) (UniProt P33535); experiment: [3H]DAMGO saturation binding, membranes of stable CHO transfectants
rMOR-1 (rat) [30] = biological target: rMOR-1 (rat) (UniProt P33535); experiment: as above
rMOR-1A (rat) [31] = experiment: as above
rMOR-1C1 (rat) [32] = experiment: as above
rMOR-1D (rat) [33] = experiment: as above

Ki (hMOR-1B2 (human) [2]) [nM] | Substance | Ki (rMOR-1 (rat) [1]) [nM] | Ki (hMOR-1 (human) [4]) [nM] | Ki (hMOR-1A (human) [5]) [nM] | Ki (hMOR-1B1 (human) [6]) [nM] | Ki (hMOR-1B3 (human) [7]) [nM] | Ki (hMOR-1B4 (human) [8]) [nM] | Ki (hMOR-1Y (human) [10]) [nM] | Max Stim (%) (rMOR-1 (no Exon 4) (rat) [11]) | Max Stim (%) (rMOR-1 (rat) [12]) | Max Stim (%) (rMOR-1A (rat) [13]) | Max Stim (%) (rMOR-1C1 (rat) [14]) | EC50 (nM), stimulation of [35S]GTPγS binding (rMOR-1D (rat) [15]) [nM] | Max Stim (%) (rMOR-1D (rat) [15]) | EC50 (nM), stimulation of [35S]GTPγS binding (rMOR-1 (no Exon 4) (rat) [11]) [nM] | EC50 (nM), stimulation of [35S]GTPγS binding (rMOR-1 (rat) [12]) [nM] | EC50 (nM), stimulation of [35S]GTPγS binding (rMOR-1A (rat) [13]) [nM] | EC50 (nM), stimulation of [35S]GTPγS binding (rMOR-1C1 (rat) [14]) [nM] | Ki (rMOR-1A (rat) [17]) [nM] | Ki (rMOR-1C1 (rat) [18]) [nM] | further results
– | Endomorphin 2 (peptide) | 8 | – | – | – | – | – | – | – | – | – | – | – | – | – | – | – | – | – | – | –
10 | DADLE (peptide) | – | – | – | – | – | – | – | – | – | – | – | – | – | – | – | – | – | – | – | –
> 500 | [D-Pen^2, D-Pen^5]enkephalin (DPDPE) (peptide) | – | > 500 | > 500 | > 500 | > 500 | > 500 | > 500 | – | – | – | – | – | – | – | – | – | – | – | – | Ki [3]: > 500 nM; Ki (hMOR-1B5 (human) [9]): > 500 nM
– | Endomorphin 1 (peptide) | – | – | – | – | – | – | – | 189 | 320 | 205 | 377 | 100 | 145 | – | – | – | – | – | – | –
– | [D-Ala^2,MePhe^4,Gly(ol)^5]enkephalin (DAMGO) (peptide) | 3.3 | 2 | – | 1.2 | – | – | – | 196 | 233 | 176 | 233 | 125 | 113 | 86 | 12 | 13 | 4 | 6 | 4.5 | Max Inhib (%) [20]: 74%; Max Inhib (%) (hMOR-1 (human) [21]): 76%; Max Inhib (%) (hMOR-1A (human) [22]): 82%; Max Inhib (%) (hMOR-1B1 (human) [23]): 57%; Max Inhib (%) (hMOR-1B2 (human) [24]): 90%; Max Inhib (%) (hMOR-1B3 (human) [25]): 73%; Max Inhib (%) (hMOR-1B4 (human) [26]): 65%; Max Inhib (%) (hMOR-1B5 (human) [27]): 83%; Max Inhib (%) (hMOR-1Y (human) [28]): 91%; Kd (rMOR-1 (no Exon 4) (rat) [29]): 4.5 nM; Kd (rMOR-1 (rat) [30]): 2.8 nM; Kd (rMOR-1A (rat) [31]): 2.5 nM; Kd (rMOR-1C1 (rat) [32]): 4.8 nM; Kd (rMOR-1D (rat) [33]): 4.7 nM; Ki (rMOR-1D (rat) [19]): 4.7 nM

Substance | Ki (hMOR-1B2 (human) [2]) [nM] | Ki (rMOR-1 (rat) [1]) [nM] | Ki (hMOR-1 (human) [4]) [nM] | Ki (hMOR-1A (human) [5]) [nM] | Ki (hMOR-1B1 (human) [6]) [nM] | Ki (hMOR-1B3 (human) [7]) [nM] | Ki (hMOR-1B4 (human) [8]) [nM] | Ki (hMOR-1Y (human) [10]) [nM] | Max Stim (%) (rMOR-1 (no Exon 4) (rat) [11]) | Max Stim (%) (rMOR-1 (rat) [12]) | Max Stim (%) (rMOR-1A (rat) [13]) | Max Stim (%) (rMOR-1C1 (rat) [14]) | EC50 (nM), stimulation of [35S]GTPγS binding (rMOR-1D (rat) [15]) [nM] | Max Stim (%) (rMOR-1D (rat) [15]) | EC50 (nM), stimulation of [35S]GTPγS binding (rMOR-1 (no Exon 4) (rat) [11]) [nM] | EC50 (nM), stimulation of [35S]GTPγS binding (rMOR-1 (rat) [12]) [nM] | EC50 (nM), stimulation of [35S]GTPγS binding (rMOR-1A (rat) [13]) [nM] | EC50 (nM), stimulation of [35S]GTPγS binding (rMOR-1C1 (rat) [14]) [nM] | Ki (rMOR-1A (rat) [17]) [nM] | Ki (rMOR-1C1 (rat) [18]) [nM] | further results
[D-Ser^2, Leu^5]enkephalin-Thr^6 (DSLET) (peptide) | 34.4 | 30.9 | 19.1 | 19.7 | 13.9 | 16.4 | 22.3 | 15.4 | 226 | 251 | 206 | 312 | 540 | 187 | 690 | 76 | 127 | 253 | 44.5 | 45 | Ki (rMOR-1 (no Exon 4) (rat) [16]): 24.2 nM; Ki (rMOR-1D (rat) [19]): 27.3 nM
